Assays:
[1] = aqueous native avidin; cited from earlier work
[2] = Hydrodynamic radius from DOSY diffusion coefficient by Stokes-Einstein equation; type: physicochemical; settings: obtained using Equation 2 (Stokes-Einstein)
Method: According to Stokes-Einstein equation mentioned below, the diffusion coefficient of solutes is directly linked to the hydrodynamic radius.
Where Rh is the hydrodynamic radius, kB is the Boltzmann constant, T is the temperature in K and η is the solution viscosity ([…] for D2O, and 30° C.) and D is the diffusion coefficient. The diffusion coefficient value is directly proportional to the temperature (T) and inversely proportional to the hydrodynamic radius. Thus, the hydrodynamic radius is related to the molecular weight, the higher the molecular weight, the larger the radius, the lower the diffusion and vice versa.

## avidin: protein with four identical subunits, each containing one binding site for biotin; from Sigma Aldrich
[1]
  hydrodynamic radius by dynamic light scattering (DLS): 26.4±0.3 Å
[2]
  hydrodynamic radius (Rh): 22.02 Å
